Reference: PMC10079672, “Construction of a synthetic metabolic pathway for biosynthesis of 2,4-dihydroxybutyric acid from ethylene glycol” (Nature Communications, 2023)

Experiments:
[1] = biological target: T1, Sc.Ara1 (Saccharomyces cerevisiae, UniProt P38115); assay: dehydrogenase activity, microplate; assay type: biochemical; conditions: NAD+ or NADP+, 10 mM cofactor, 10 mM sugar; 37 °C
T1 construct: N-terminal His tag (pET28a)

[2] = biological target: T2, Bm.Fdh (Burkholderia multivorans, UniProt A0A0H3KNE7); assay: dehydrogenase activity, microplate; assay type: biochemical; conditions: NAD+ or NADP+, 10 mM cofactor, 10 mM sugar; 37 °C
T2 construct: gene BMULJ_04919; N-terminal His tag (pET28a)
T2 sequence (A0A0H3KNE7 whole entry): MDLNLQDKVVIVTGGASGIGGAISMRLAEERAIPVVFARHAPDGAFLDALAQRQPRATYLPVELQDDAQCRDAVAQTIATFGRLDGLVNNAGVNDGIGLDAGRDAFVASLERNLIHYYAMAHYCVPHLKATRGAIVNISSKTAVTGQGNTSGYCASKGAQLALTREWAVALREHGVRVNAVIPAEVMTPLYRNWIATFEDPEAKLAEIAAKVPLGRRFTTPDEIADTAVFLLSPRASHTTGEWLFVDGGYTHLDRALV

[3] = biological target: T3, Pc.TadH (Trinickia caryophylli, UniProt A0A1X7DDC2); assay: dehydrogenase activity, microplate; assay type: biochemical; conditions: NAD+ or NADP+; 37 °C
T3 construct: gene SAMN06295900_10348; N-terminal His tag (pET28a)
T3 sequence (A0A1X7DDC2 1-334): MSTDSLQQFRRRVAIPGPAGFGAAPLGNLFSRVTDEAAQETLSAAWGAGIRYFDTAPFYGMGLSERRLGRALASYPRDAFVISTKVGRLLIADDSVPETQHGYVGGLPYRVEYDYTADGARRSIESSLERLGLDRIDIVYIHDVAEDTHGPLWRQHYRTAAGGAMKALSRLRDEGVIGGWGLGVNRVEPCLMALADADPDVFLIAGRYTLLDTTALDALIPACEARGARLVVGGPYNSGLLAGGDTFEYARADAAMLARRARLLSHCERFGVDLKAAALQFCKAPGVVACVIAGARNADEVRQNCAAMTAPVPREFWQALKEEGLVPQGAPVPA

[4] = test system: T4, Hh.AraD; conditions: 37 °C
T4 construct: gene E2K99_19880

[5] = biological target: T5, Ec.FucO (Escherichia coli, UniProt P0A9S1); assay: ethylene glycol dehydrogenase activity in protein extract; empty-plasmid extract inactive; assay type: biochemical; conditions: 50 mM ethylene glycol; NAD+
T5 construct: expressed from pEXT20 in E. coli TW64; protein extract
T5 sequence (P0A9S1 1-382): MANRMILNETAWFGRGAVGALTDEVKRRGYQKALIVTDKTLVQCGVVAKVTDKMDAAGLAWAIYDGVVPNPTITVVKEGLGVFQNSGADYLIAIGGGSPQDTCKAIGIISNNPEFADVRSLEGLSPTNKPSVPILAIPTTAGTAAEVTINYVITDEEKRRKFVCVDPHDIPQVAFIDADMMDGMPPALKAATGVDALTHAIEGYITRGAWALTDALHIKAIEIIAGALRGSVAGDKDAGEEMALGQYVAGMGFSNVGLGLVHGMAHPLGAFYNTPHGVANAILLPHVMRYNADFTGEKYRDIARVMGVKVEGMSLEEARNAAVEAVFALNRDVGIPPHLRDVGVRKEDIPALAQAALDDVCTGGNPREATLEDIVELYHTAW

[6] = biological target: T6, Go.Adh (Gluconobacter oxydans, UniProt Q5FU50); assay: as above; assay type: biochemical; conditions: 50 mM ethylene glycol; NAD+
T6 construct: gene GOX0313; expressed from pEXT20 in E. coli TW64; protein extract
T6 sequence (Q5FU50 1-343): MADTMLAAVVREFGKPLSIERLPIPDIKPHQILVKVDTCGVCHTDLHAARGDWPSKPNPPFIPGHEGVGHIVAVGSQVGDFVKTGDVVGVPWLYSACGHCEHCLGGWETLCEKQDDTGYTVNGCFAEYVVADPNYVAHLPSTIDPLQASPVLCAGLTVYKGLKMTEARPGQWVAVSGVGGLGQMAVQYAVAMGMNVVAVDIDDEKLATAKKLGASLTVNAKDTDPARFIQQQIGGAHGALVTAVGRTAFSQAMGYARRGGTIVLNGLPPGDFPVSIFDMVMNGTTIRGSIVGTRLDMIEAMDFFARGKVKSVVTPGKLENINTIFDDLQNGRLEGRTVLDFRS

[7] = substrate: C[C@H](O)[C@H]1OC(=O)[C@@H](O)[C@@H]1O; assay: lactonase kinetics, Michaelis-Menten fit; assay type: biochemical, Thermogutta terrifontis; conditions: 37 °C
[8] = substrate: O=C1OC[C@@H](O)[C@@H]1O; assay: lactonase kinetics, Michaelis-Menten fit; assay type: biochemical, Thermogutta terrifontis; conditions: 37 °C
[9] = substrate: O=C(O)[C@@H](O)[C@H](O)CO; assay: purified protein; conditions: 37 °C

O=C[C@@H](O)[C@H](O)CO [D-threose]
specific activity [1]: Sc.Ara1, Pc.TadH and Bm.Fdh displayed measurable activity on D-threose
specific activity [2]: Sc.Ara1, Pc.TadH and Bm.Fdh displayed measurable activity on D-threose
specific activity (no saturation up to 50 mM) [3]: Sc.Ara1, Pc.TadH and Bm.Fdh displayed measurable activity on D-threose

O=C(O)[C@@H](O)[C@H](O)CO [D-threonate]
Km [4]: 1210 µM

OCCO [ethylene glycol]
activity [5]: all candidate enzymes were active on EG
activity [6]: all candidate enzymes were active on EG

B1: Tt.Lac11 (Thermogutta terrifontis) (protein)
chain: MRKLLGSSAIHVLSRRTGYGMYFLILALGVATQVVFGAEPSQNPSEKVAWIERADPGLDDLIAPDAQVEVLAEGFEWSEGPVWIPEGGYLLFSDVPKNTIYRWKEGQGIDIFLKPSGYTGFRERGGESGSNGLALDRQGRLLLCQHGDRRVARWEKGCFITLADQYEGKPLNSPNDLVVKSNGDIYFTDPPYGMTPEAQRDPNALGFCGVYRISADGKLTLLVRDMTRPNGIAFSPDEKTLYVAQSDPQRPLWMAFPVREDGTLGEGKVFFDAKPWQQSGLPGLPDGMKVDQKGNLFATGPGGVNIFRPDGTFLGRIRVKVPTANCAFGDDGSTLYITADMYLLRVKTKTKGLGF
notes: full-length with predicted N-terminal signal peptide; hexa-His tag (pET28a)
Km [7]: 0.84 (±0.06) × 10^-3 M
Km [8]: 2.92 (±0.13) mM
Vmax [8]: 1.76 µmol/min/mg
Vmax/Km [8]: 603 µL/min/mg

B2: Aa.AraD (Paracidovorax avenae ATCC 19860) (protein)
chain: MSTDALATQSLLILNDRDNVAVARTELGAGMELRLAGGEVLEVMATVPAGHKIALRPIAKGDAVLKYGQVIGAASTPIGAGEHVHVHNVEMGDSSPTHLVGRAYVPTDPVEQPATFMGYVRADGRVGTRNYIGVISSVNCSATVCKAIAQAFTGPALGAYPGVDGVVAITHGTGCGMSGEGEGIELLRRTLSGYIAHPNFAAVLVIGLGCEVNQVEGLTGRLPLPEGRVRTMTIQDAGGTREAIAQGIDIVRDMAAAASGARRTQVPASHLVVGLQCGGSDGYSGISANPVLGAAVDMLVRHGGTAILSETPEIYGAEHLLTARAASAEVAERLMARLAWWEAYTQRNGANMNNNPSPGNKAGGITTILEKSLGAVAKGGGSGLMDVVEYAQPVHSRGLVFMDTPGYDPVSATGQVAGGANLICFTTGRGSTYGCKPTPSLKLATNTALFRNMGMDMDFNAGDVVDGTLGIAQAGRHLFELMLATASGDRTLSETHGLGDNEFVPWQLGAVM
Km [9]: 1.95 (±0.53) mM
Vmax [9]: 0.12 µmol/min/mg
Vmax/Km [9]: 62 µL/min/mg
